Here are results for eleven proteins from paper PMC12120360, “Lysine acetylation modulates s‐OPA1 GTPase activity and oligomerization in mitochondrial membrane remodeling” (Protein Science : A Publication of the Protein Society, 2025).

Changes are numbered by the printed parent chain. In names and notes the source's numbering stands.

The series concerns the molecule itself. In words: mass photometry; protein in solution at 75 nM final; 20 mM HEPES-NaOH pH 7.5, 130 mM NaCl, 10 mM KCl, 2 mM MgCl2, 2 mM DTT, 2% glycerol; Refeyn mass photometer; mass measured three times for each protein.

B1: short form of human OPA1 (residues 195–960) wild-type (domain or fragment, UniProt O60313-1 195-960, looked up)
chain: ATDRGSESDKHFRKVSDKEKIDQLQEELLHTQLKYQRILERLEKENKELRKLVLQKDDKGIHHRKLKKSLIDMYSEVLDVLSDYDASYNTQDHLPRVVVVGDQSAGKTSVLEMIAQARIFPRGSGEMMTRSPVKVTLSEGPHHVALFKDSSREFDLTKEEDLAALRHEIELRMRKNVKEGCTVSPETISLNVKGPGLQRMVLVDLPGVINTVTSGMAPDTKETIFSISKAYMQNPNAIILCIQDGSVDAERSIVTDLVSQMDPHGRRTIFVLTKVDLAEKNVASPSRIQQIIEGKLFPMKALGYFAVVTGKGNSSESIEAIREYEEEFFQNSKLLKTSMLKAHQVTTRNLSLAVSDCFWKMVRESVEQQADSFKATRFNLETEWKNNYPRLRELDRNELFEKAKNEILDEVISLSQVTPKHWEEILQQSLWERVSTHVIENIYLPAAQTMNSGTFNTTVDIKLKQWTDKQLPNKAVEVAWETLQEEFSRFMTEPKGKEHDDIFDKLKEAVKEESIKRHKWNDFAEDSLRVIQHNALEDRSISDKQQWDAAIYFMEEALQARLKDTENAIENMVGPDWKKRWLYWKNRTQEQCVHNETKNELEKMLKCNEEHPAYLASDEITTVRKNLESRGVEVDPSLIKDTWHQVYRRHFLKTALNHCNLCRRGFYYYQRHFVDSELECNDVVLFWRIQRMLAITANTLRQQLTNTEVRRLEKNVKEVLEDFAEDGEKKIKLLTGKRVQLAEDLKKVREIQEKLDAFIEALHQEK
modifications: acetyl-lysine at K342 only (endogenous, acquired during expression; found by mass spectrometry)
notes: Optic Atrophy 1 (OPA1), human, short form (s-OPA1), residues 195-960; domain model of isoform 1; Gene bought from Genscript in the pGS-21a vector; also called s-OPA1 WT; s-OPA1; source: E. coli BL21 (DE3), purified (glutathione resin, 3C protease cleavage, size exclusion chromatography)
By stoichiometry N is commonly meant the number of molecules, sites or subunits per partner or assembly. Take B1: the “stoichiometry N” value is 2.

B2: s-OPA1 K342R (domain or fragment, human, UniProt O60313-1 195-960, looked up)
chain: B1 chain with K148R
modifications: 18 acetylated lysine sites (endogenous; listed in Figure 2c)
notes: Optic Atrophy 1 (OPA1), human, short form (s-OPA1), residues 195-960; domain model of isoform 1; Gene bought from Genscript in the pGS-21a vector; source: E. coli BL21 (DE3), purified (glutathione resin, 3C protease cleavage, size exclusion chromatography)
Consider B2, for which the “stoichiometry N” value stood at 2.

B3: s-OPA1 K663R (domain or fragment, human, UniProt O60313-1 195-960, looked up)
chain: B1 chain with K469R
modifications: endogenous lysine acetylation, sites listed in Figure 2c
notes: as for B2
Regarding B3, the “stoichiometry N” value was found to be 2.

B4: s-OPA1 K772R (domain or fragment, human, UniProt O60313-1 195-960, looked up)
chain: B1 chain with K578R
modifications: 10 endogenous acetylated lysine residues, including K328 and K342 (listed in Figure 2c)
notes: as for B2
Take B4: the “stoichiometry N” value is 2.

B5: s-OPA1 K772Q (domain or fragment, human, UniProt O60313-1 195-960, looked up)
chain: B1 chain with K578Q
modifications: acetyl-lysine at K713 only (endogenous, by mass spectrometry)
notes: as for B2
As to B5, the “stoichiometry N” value worked out at 2.

B6: s-OPA1 K579R (domain or fragment, human, UniProt O60313-1 195-960, looked up)
chain: B1 chain with K385R
modifications: endogenous lysine acetylation, sites listed in Figure 2c
notes: as for B2
For the protein B6, the “stoichiometry N” value is 2.

B7: s-OPA1 K328Q (domain or fragment, human, UniProt O60313-1 195-960, looked up)
chain: B1 chain with K134Q
modifications: acetyl-lysine at K713 only (endogenous, by mass spectrometry)
notes: Optic Atrophy 1 (OPA1), human, short form (s-OPA1), residues 195-960; domain model of isoform 1; Gene bought from Genscript in the pGS-21a vector; also called acetylation mimetic mutant K328Q; source: E. coli BL21 (DE3), purified (glutathione resin, 3C protease cleavage, size exclusion chromatography)
In the case of B7, the “stoichiometry N” value amounted to 2.

B8: s-OPA1 K579Q (domain or fragment, human, UniProt O60313-1 195-960, looked up)
chain: B1 chain with K385Q
modifications: endogenous lysine acetylation, sites listed in Figure 2c
notes: as for B2
In the case of B8, the “stoichiometry N” value worked out at 2.

B9: s-OPA1 K342Q (domain or fragment, human, UniProt O60313-1 195-960, looked up)
chain: B1 chain with K148Q
modifications: 11 additional acetylation sites (endogenous; listed in Figure 2c)
notes: as for B2
Take B9: the “stoichiometry N” value was 2.

B10: s-OPA1 K663Q (domain or fragment, human, UniProt O60313-1 195-960, looked up)
chain: B1 chain with K469Q
modifications: endogenous lysine acetylation, sites listed in Figure 2c
notes: as for B2
For the protein B10, the “stoichiometry N” value amounted to 2.

B11: s-OPA1 K328R (domain or fragment, human, UniProt O60313-1 195-960, looked up)
chain: B1 chain with K134R
modifications: endogenous lysine acetylation, sites listed in Figure 2c
notes: Optic Atrophy 1 (OPA1), human, short form (s-OPA1), residues 195-960; domain model of isoform 1; Made as a deacetylation mimetic; source: E. coli BL21 (DE3), purified (glutathione resin, 3C protease cleavage, size exclusion chromatography)
On to B11, for which the “stoichiometry N” value came to 2.
